From the supplement of paper PMC10126150
± gives the standard deviation of the averaged measurements.

System: ATP
Assay: switch fluorescence ratio, 500 uM ATP over buffer (Cy3 cluster intensity, sum of 5 cycles each) (fold (ratio)); higher = stronger signal-on switching upon ATP binding; sequences stand for … in TCGTCGGCAGCGTCAGATGTGTATAAGAGACAGTTTTTTTTTTTTTTTTTTTTTTTTT…TC
Conditions: aptamer strand: ATP DNA aptamer (quencher-CACCTGGGGGAGTATTGCGGAGGAAGG + anchor), 100 nM annealed; ATP concentration: 500 uM
In short: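 Values give the fluorescence ratio for each switch-domain sequence, averaged from per-cluster ratios of summed target-cycle to summed buffer-cycle Cy3 intensity. The Cy3-labelled switching-strand clusters sat on a modified Illumina MiSeq flow-cell, were annealed to 100 nM quencher-labelled ATP aptamer, and were imaged in selection buffer, then after 15 min with 500 uM ATP at 22 °C. Five cycles ran with NaOH stripping and re-annealing between them, and clusters outside 100-1000 RFU were excluded.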
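Also: ATP exposure 15 min at 22 °C before imaging.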

TATAGCAAGT
switch fluorescence ratio: 1.07 ± 0.034

TATAGCTTCG
switch fluorescence ratio: 1 ± 0.043

TATAGCTTGG
switch fluorescence ratio: 1 ± 0.029

TATAGGAGGT
switch fluorescence ratio: 0.987 ± 0.062

TATAGGCCCC
switch fluorescence ratio: 0.983 ± 0.015

TATAGGGGCT
switch fluorescence ratio: 0.9805 ± 0.0098

TATAGTAGTG
switch fluorescence ratio: 0.973 ± 0.014

TATAGTCTCG
switch fluorescence ratio: 1.01 ± 0.019

TATAGTCTTC
switch fluorescence ratio: 0.959 ± 0.027

TATAGTGCGT
switch fluorescence ratio: 0.978 ± 0.03

TATAGTGGGA
switch fluorescence ratio: 1 ± 0.032

TATATCTGAC
switch fluorescence ratio: 1.16 ± 0.074

TATATGATG
switch fluorescence ratio: 1.0194 ± 0.00035

TATATGATGC
switch fluorescence ratio: 0.984 ± 0.029

TATATGATGG
switch fluorescence ratio: 0.982 ± 0.024

TATATGCACT
switch fluorescence ratio: 1.07 ± 0.024

TATATGGCGT
switch fluorescence ratio: 0.989 ± 0.019

TATATGGGTT
switch fluorescence ratio: 0.9849 ± 0.0062

TATATGGTGT
switch fluorescence ratio: 1.02 ± 0.024

TATATGTGGC
switch fluorescence ratio: 1.07 ± 0.068

TATATTAGAG
switch fluorescence ratio: 1.01 ± 0.0023

TATATTAGCT
switch fluorescence ratio: 1.01 ± 0.026

TATATTGCTA
switch fluorescence ratio: 1.01 ± 0.026

TATATTTCGT
switch fluorescence ratio: 1.03 ± 0.07

TATATTTTAG
switch fluorescence ratio: 1.03 ± 0.021

TATATTTTGG
switch fluorescence ratio: 1.02 ± 0.074

TATATTTTTT
switch fluorescence ratio: 1.02 ± 0.068

TATCAAATTG
switch fluorescence ratio: 1.02 ± 0.025

TATCAGGGGG
switch fluorescence ratio: 0.988 ± 0.026

TATCAGTGGT
switch fluorescence ratio: 0.997 ± 0.026

TATCATAGCC
switch fluorescence ratio: 1.02 ± 0.027

TATCATCCGG
switch fluorescence ratio: 0.985 ± 0.032

TATCATGTTG
switch fluorescence ratio: 0.9987 ± 0.0047

TATCATTTAA
switch fluorescence ratio: 1.005 ± 0.009

TATCCAACAT
switch fluorescence ratio: 1.036 ± 0.00037

TATCCACCGT
switch fluorescence ratio: 1.077 ± 0.0031

TATCCCTGCT
switch fluorescence ratio: 1 ± 0.027

TATCGAAGTG
switch fluorescence ratio: 0.993 ± 0.019

TATCGACGGC
switch fluorescence ratio: 1.03 ± 0.05

TATCGCGAAT
switch fluorescence ratio: 1.01 ± 0.021

TATCGGCTGG
switch fluorescence ratio: 1.01 ± 0.025

TATCGGGATT
switch fluorescence ratio: 1.02 ± 0.026

TATCGGGGCA
switch fluorescence ratio: 0.9622 ± 0.007

TATCGGTCTA
switch fluorescence ratio: 1.006 ± 0.005

TATCGGTTAT
switch fluorescence ratio: 0.984 ± 0.013

TATCGTAAAT
switch fluorescence ratio: 1 ± 0.029

TATCGTATTC
switch fluorescence ratio: 0.97 ± 0.037

TATCGTGGGA
switch fluorescence ratio: 1.01 ± 0.019

TATCGTTTAA
switch fluorescence ratio: 0.987 ± 0.032

TATCTAAATC
switch fluorescence ratio: 0.9967 ± 0.0063

TATCTAATGC
switch fluorescence ratio: 1 ± 0.085

TATCTACAAT
switch fluorescence ratio: 1.01 ± 0.02

TATCTACGGG
switch fluorescence ratio: 1.036 ± 0.0013

TATCTTAGGC
switch fluorescence ratio: 1.01 ± 0.027

TATCTTTAAC
switch fluorescence ratio: 1.03 ± 0.024

TATCTTTAGT
switch fluorescence ratio: 0.989 ± 0.015

TATCTTTCTT
switch fluorescence ratio: 1.06 ± 0.019

TATCTTTTTC
switch fluorescence ratio: 1.04 ± 0.084

TATGAAAGGG
switch fluorescence ratio: 1.13 ± 0.16

TATGAAGGGA
switch fluorescence ratio: 0.99 ± 0.021

TATGAATCAG
switch fluorescence ratio: 0.998 ± 0.019

TATGAGGTTC
switch fluorescence ratio: 0.983 ± 0.1

TATGATCTTT
switch fluorescence ratio: 1.029 ± 0.0052

TATGATGCAT
switch fluorescence ratio: 0.991 ± 0.028

TATGATGTCG
switch fluorescence ratio: 1.01 ± 0.027

TATGATTTAA
switch fluorescence ratio: 1.01 ± 0.016

TATGCAGTCA
switch fluorescence ratio: 1.01 ± 0.029

TATGCCTTCG
switch fluorescence ratio: 1.09 ± 0.05

TATGCCTTTG
switch fluorescence ratio: 0.987 ± 0.033

TATGCGGACA
switch fluorescence ratio: 1.04 ± 0.027

TATGCGGTCC
switch fluorescence ratio: 1.02 ± 0.019

TATGCTAAAA
switch fluorescence ratio: 0.965 ± 0.038

TATGCTGCTG
switch fluorescence ratio: 1.01 ± 0.036

TATGCTTATA
switch fluorescence ratio: 0.98 ± 0.014

TATGGAAGCA
switch fluorescence ratio: 0.994 ± 0.014

TATGGACATT
switch fluorescence ratio: 1.03 ± 0.011

TATGGAGCGT
switch fluorescence ratio: 1.04 ± 0.018

TATGGAGGCT
switch fluorescence ratio: 1.07 ± 0.015

TATGGATAGT
switch fluorescence ratio: 0.998 ± 0.017

TATGGATTGC
switch fluorescence ratio: 0.988 ± 0.032

TATGGCATCT
switch fluorescence ratio: 1 ± 0.051

TATGGCCCGG
switch fluorescence ratio: 1.02 ± 0.0014

TATGGCGGTC
switch fluorescence ratio: 0.92422 ± 0.00078

TATGGCGGTG
switch fluorescence ratio: 0.989 ± 0.021

TATGGGAGTT
switch fluorescence ratio: 1 ± 0.01

TATGGGCAGT
switch fluorescence ratio: 1.007 ± 0.0017

TATGGGCGTC
switch fluorescence ratio: 0.999 ± 0.011

TATGGGGCAG
switch fluorescence ratio: 0.99 ± 0.0093

TATGGGGGA
switch fluorescence ratio: 1.01 ± 0.069

TATGGGGGCT
switch fluorescence ratio: 1.04 ± 0.012

TATGGGTGCT
switch fluorescence ratio: 1.06 ± 0.046

TATGGGTTAA
switch fluorescence ratio: 1.01 ± 0.022

TATGGGTTGG
switch fluorescence ratio: 1.02 ± 0.04

TATGGTCGCT
switch fluorescence ratio: 1.03 ± 0.041

TATGGTGCG
switch fluorescence ratio: 0.984 ± 0.011

TATGGTGCTT
switch fluorescence ratio: 1.01 ± 0.032

TATGGTGTGC
switch fluorescence ratio: 1.02 ± 0.021

TATGGTTTAC
switch fluorescence ratio: 1 ± 0.017

TATGGTTTTT
switch fluorescence ratio: 0.996 ± 0.015

TATGTACACT
switch fluorescence ratio: 1.06 ± 0.053

TATGTAGGGG
switch fluorescence ratio: 1.09 ± 0.14

TATGTAGGTA
switch fluorescence ratio: 0.994 ± 0.047

TATGTATCGC
switch fluorescence ratio: 1.13 ± 0.15

TATGTCAGCT
switch fluorescence ratio: 1.01 ± 0.032

TATGTCTACA
switch fluorescence ratio: 0.9859 ± 0.0075

TATGTGAACT
switch fluorescence ratio: 0.9986 ± 0.0019

TATGTGAAGG
switch fluorescence ratio: 0.995 ± 0.015

TATGTGCAGG
switch fluorescence ratio: 0.995 ± 0.015

TATGTGCTGT
switch fluorescence ratio: 0.983 ± 0.011

TATGTGGACA
switch fluorescence ratio: 0.9964 ± 0.0047

TATGTGGAGG
switch fluorescence ratio: 0.97262 ± 0.00028

TATGTGGGCT
switch fluorescence ratio: 0.987 ± 0.021

TATGTGGGTC
switch fluorescence ratio: 1.02 ± 0.035

TATGTGTAAC
switch fluorescence ratio: 0.978 ± 0.02

TATGTGTGTT
switch fluorescence ratio: 0.9873 ± 0.0062

TATGTTAAC
switch fluorescence ratio: 1.02 ± 0.012

TATGTTAATG
switch fluorescence ratio: 0.999 ± 0.016

TATGTTAGTG
switch fluorescence ratio: 1.01 ± 0.042

TATGTTATGT
switch fluorescence ratio: 1.01 ± 0.052

TATGTTATTA
switch fluorescence ratio: 0.984 ± 0.039

TATGTTTGGG
switch fluorescence ratio: 0.986 ± 0.034

TATGTTTTGT
switch fluorescence ratio: 1.02 ± 0.041

TATGTTTTTT
switch fluorescence ratio: 0.997 ± 0.031

TATTAAAAAT
switch fluorescence ratio: 1.03 ± 0.047

TATTAAACTC
switch fluorescence ratio: 1.02 ± 0.017

TATTAACGTT
switch fluorescence ratio: 1.015 ± 0.0039

TATTAAGAGG
switch fluorescence ratio: 0.98 ± 0.018

TATTAAGCGA
switch fluorescence ratio: 1.05 ± 0.037

TATTAAGGGT
switch fluorescence ratio: 0.979 ± 0.029

TATTAAGGTT
switch fluorescence ratio: 0.978 ± 0.021

TATTAAGTGG
switch fluorescence ratio: 1.05 ± 0.071

TATTAATCGG
switch fluorescence ratio: 0.97 ± 0.056

TATTAATGAT
switch fluorescence ratio: 1.007 ± 0.01

TATTAATTC
switch fluorescence ratio: 0.972 ± 0.056

TATTAGAACT
switch fluorescence ratio: 1.017 ± 0.0064

TATTAGCTAT
switch fluorescence ratio: 0.998 ± 0.037

TATTAGGTA
switch fluorescence ratio: 1.01 ± 0.017

TATTAGTTTG
switch fluorescence ratio: 0.997 ± 0.024

TATTATATTT
switch fluorescence ratio: 1 ± 0.0046

TATTATGGGG
switch fluorescence ratio: 1.02 ± 0.034

TATTCAATTT
switch fluorescence ratio: 1 ± 0.021

TATTCAGGGT
switch fluorescence ratio: 1.01 ± 0.028

TATTCATGGT
switch fluorescence ratio: 1.025 ± 0.0057

TATTCCGTCC
switch fluorescence ratio: 1.1 ± 0.049

TATTCGATTC
switch fluorescence ratio: 1.04 ± 0.017

TATTCGGCTG
switch fluorescence ratio: 0.997 ± 0.029

TATTCTACCA
switch fluorescence ratio: 1.01 ± 0.011

TATTGAATGG
switch fluorescence ratio: 0.972 ± 0.03

TATTGAGGGA
switch fluorescence ratio: 1.017 ± 0.0031

TATTGATAAA
switch fluorescence ratio: 0.991 ± 0.058

TATTGATGGT
switch fluorescence ratio: 0.994 ± 0.019

TATTGCGATT
switch fluorescence ratio: 0.994 ± 0.018

TATTGGAGGT
switch fluorescence ratio: 0.981 ± 0.021

TATTGGGCTT
switch fluorescence ratio: 0.989 ± 0.018

TATTGGGGAA
switch fluorescence ratio: 0.978 ± 0.01

TATTGGGGGG
switch fluorescence ratio: 0.999 ± 0.025

TATTGGGTTC
switch fluorescence ratio: 0.965 ± 0.011

TATTGGTCAA
switch fluorescence ratio: 0.962 ± 0.017

TATTGGTGGG
switch fluorescence ratio: 0.9663 ± 0.008

TATTGTAGCT
switch fluorescence ratio: 1.01 ± 0.044

TATTGTTGGG
switch fluorescence ratio: 0.976 ± 0.03

TATTTAGGAA
switch fluorescence ratio: 0.9498 ± 0.0078

TATTTAGGGG
switch fluorescence ratio: 0.973 ± 0.022

TATTTAGTTT
switch fluorescence ratio: 1.01 ± 0.023

TATTTCCGGG
switch fluorescence ratio: 1.012 ± 0.0045

TATTTCTTTT
switch fluorescence ratio: 1.05 ± 0.11

TATTTGAATC
switch fluorescence ratio: 1.15 ± 0.24

TATTTGACG
switch fluorescence ratio: 1.02 ± 0.035

TATTTGAGCA
switch fluorescence ratio: 0.995 ± 0.026

TATTTGGAGG
switch fluorescence ratio: 0.992 ± 0.0044

TATTTGGCAT
switch fluorescence ratio: 1.036 ± 0.0029

TATTTGGGTC
switch fluorescence ratio: 0.98285 ± 0.00046

TATTTGGTTT
switch fluorescence ratio: 1 ± 0.017

TATTTGTACT
switch fluorescence ratio: 1 ± 0.013

TATTTGTGGG
switch fluorescence ratio: 0.9845 ± 0.0083

TATTTGTGTC
switch fluorescence ratio: 0.982 ± 0.057

TATTTGTGTG
switch fluorescence ratio: 0.998 ± 0.029

TATTTTAAAA
switch fluorescence ratio: 0.986 ± 0.022

TATTTTAGC
switch fluorescence ratio: 0.971 ± 0.034

TATTTTATTG
switch fluorescence ratio: 1.03 ± 0.02

TATTTTGAAG
switch fluorescence ratio: 1.07 ± 0.13

TATTTTGACG
switch fluorescence ratio: 0.9151 ± 0.0046

TATTTTGCCT
switch fluorescence ratio: 1.036 ± 0.01

TATTTTGCGT
switch fluorescence ratio: 1.002 ± 0.0024

TATTTTGGTT
switch fluorescence ratio: 0.999 ± 0.015

TATTTTGTAT
switch fluorescence ratio: 1 ± 0.019

TATTTTGTGG
switch fluorescence ratio: 0.984 ± 0.026

TATTTTTCTT
switch fluorescence ratio: 0.975 ± 0.041

TATTTTTGGA
switch fluorescence ratio: 0.981 ± 0.043

TATTTTTGGC
switch fluorescence ratio: 1.01 ± 0.018

TATTTTTGGG
switch fluorescence ratio: 0.99 ± 0.023

TATTTTTGTT
switch fluorescence ratio: 1.05 ± 0.074

TATTTTTTCT
switch fluorescence ratio: 0.994 ± 0.045

TATTTTTTTT
switch fluorescence ratio: 1.01 ± 0.043

TCAAAACTTG
switch fluorescence ratio: 1.01 ± 0.057

TCAAAAGTCG
switch fluorescence ratio: 1.03 ± 0.012

TCAAAAGTTG
switch fluorescence ratio: 1.04 ± 0.044

TCAAAATATT
switch fluorescence ratio: 1.006 ± 0.0065

TCAAAATGCT
switch fluorescence ratio: 1.09 ± 0.058

TCAAAATGTG
switch fluorescence ratio: 0.958 ± 0.015
